Laboratory results as given in publication PMC8333356 (Nature Communications, 2021).

B1: Nb34 (VHH)
VHH: DVQLVESGGGLVQAGGSLRLSCAASGFTFSNYVMYWGRQAPGKGREWVSGIDSDGSDTAYASSVKGRFTISRDNAKNTLYLQMNNLKPEDTALYYCVKSKDPYGSPWTRSEFDDYWGQGTQVTVSS
notes: Cloned in pET-21b(+)
B2: Nb21 (VHH)
VHH: QVQLVESGGGLVQAGGSLRLSCAVSGLGAHRVGWFRRAPGKEREFVAAIGANGGNTNYLDSVKGRFTISRDNAKNTIYLQMNSLKPQDTAVYYCAARDIETAEYTYWGQGTQVTVSS
notes: Cloned in pET-21b(+); also called class I Nb; source: E. coli BL21 (DE3), purified (cobalt resin, Superdex 75)
B3: Nb95 (VHH)
VHH: QVQLVESGGGLVQAGGSLRLSCAASGRTFSSYSMGWFRQAQGKEREFVATINGNGRDTYYTNSVKGRFTISRDDATNTVYLQMNSLKPEDTAIYYCAADKDVYYGYTSFPNEYEYWGQGTQVTVSS
notes: Cloned in pET-21b(+)
B4: Nb17 (VHH)
VHH: HVQLVESGGGLVQAGGSLRLSCAASGSIFSSNAMSWYRQAPGKQRELVASITSGGNADYADSVKGRFTISRDKNTVYPEMSSLKPADTAVYYCHAVGQEASAYAPRAYWGQGTQVTVSS
notes: Cloned in pET-21b(+); also called class III Nb; source: E. coli BL21 (DE3), purified (cobalt resin, Superdex 75)

Target: receptor binding domain (RBD) of SARS-CoV-2 spike (SARS-CoV-2 Wuhan-Hu-1, UniProt P0DTC2)
Experiment: ELISA
Settings: both partners purified

Q: Does B1 bind?
A: binds

Q: Does B2 bind?
A: binds

Q: Does B3 bind?
A: binds

Q: Does B4 bind?
A: binds
